# In the nanobody polyreactivity screen of Harvey et al. (2022):
# Test: yeast display, Sf9 membrane polyspecificity reagent, FACS + sequencing; frameworks hold sequencing errors
# How it was run: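 Nanobodies came from a synthetic yeast display library in Saccharomyces cerevisiae BJ5465, induced with galactose for 36–48 hours and stained for 1 hour at 4 °C with 10% biotinylated, detergent-solubilized Sf9 membrane reagent. Cells were enriched on streptavidin microbeads and then FACS-sorted, with low and high (top ~1%) gates set on anti-HA fluorescence for expression and streptavidin fluorescence for reagent binding. Each polyreactivity label reflects the gate a clone came from. Genes were amplified by colony PCR, sequenced by MiSeq 2 × 250 and filtered by CDR length.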
row,Sequence,polyreactivity (PSR sort gate)
1,QVQLVESGGGLVQAGGSLRLSCAASGFTFFYYVMGWYRQAPGKERDLVAAITRGGSTYYADSVKGRFTISRDNAKNTVDLQMNSLKPEDTAVYYCNKVLRVYLGRFEYYSWGQGTQVTVSS,high polyreactivity
2,QVQLVESGGGLVQAGGSLRLSCAASGFIFQYFAMGWYRQAPGKERELVAGITSGVRPYYADSLKGRFTISRDNAKNTVYLQMNSLKPEDTAVYYCARLDSAAEPRQYDYWGQGTQVTVSS,high polyreactivity
3,QVQLVESGGGLVQAGGSLRLSCAASGFIFTIYALGWYRQAPGKERELVAAIDSSGTTYYADSVKGRFTISRDNAKNTVYLQMNSLKPEDTAVYYCNTDIYVQYGWGQGTQVTVSS,low polyreactivity
4,QVQLVESAGGLVQAGGTLRLSCAASGSIFQFYAMGWYRHAPGKERELVAVITTSGVSTYYADSVKGRFTISRDNAKNTVYLQMNSLKPEDTGVYYCAARQWTSASYDYWGQGSQVTVSS,low polyreactivity
5,QVQLVESGGGLVQAGGSLRLSFAASGINFEHNSMGWYRQAPGKERELVAVISKYGGRTYYADSVKGRFTISRDNAKNTVYLQMNSLKPEDTAVYYCAKRSPFITWNGISYEEYDYWGQGTQVTVSS,low polyreactivity
6,QVQLVESGGGLVQAGGSLRLSCAASGFTFASNCMGWYRQAPGKERELVAVIDWSDDSTYYADSVKGRFTISRDNAKNTVYLQMNSLKPEDTAVYYCKADVWWGGYDYWGQGTQVNVSS,low polyreactivity
7,QVQLVESGGGLVQAGGSLRLSCAASGRIFRYYAMGWYRQAPGKERELVAAITRGGSTNYADSVKGRFTISRDNAKNTVYLQMNSLKPEDSAVFYCATRESCYPRWMDYWGQGTQVTVSS,high polyreactivity
8,QVQLVDSGGGLVQAGGSLRLSCPASGITLNHYVMGWYRQAPAKETELVAAISSSGGSTYYADSVKGRFTISRDNAMITVYLQMNSLKPEDTAVYYCAKDYNGRYTWRYEYWGQGTQVTVSS,high polyreactivity
9,QVQLVQSGGGLVQAGGSLRLSCAASGSTFYVYAMGWYRQAPGKEREFVAAISRSGGRTYYAVSVKGRFTISRDNAKNTVYLQMNSLKPEDTAVYYCNARDSLRYYTYYFEDYRVGYDYWGQGTQVTVSS,high polyreactivity
10,QVQIVDSGGGLVQAGGSLRLSCAASGNIFAWYAMGWYTQAPGQVRELVAAINWSRGSTYYADSVKGRFTISRDNAKNTVYLQMNSLKPEDTAVYYCNAVFQDRTDDYDYWGQGTQVTLSS,low polyreactivity
11,QDQHVESAGGLVQAGGSRRLSCAASESMFSTYPMGCYSQAPGTESELVATIRRGGSTYYADSVKGRFTISRDNAKNTVYLQMNSLKPEDSAVYYCAATVSSYPYYRYYSWGQGTQVTVSS,high polyreactivity
12,QGQLVASGGGLVQAGGSLRLSSAASGSIFWLSTMGWSRQGPGKEREWVAAITGSGSATYYADSVKGRFTISRDYAKNTVYLQMTTLKPEDTADYYCAAYWSSARRRYDYWGQGSQVTVSS,high polyreactivity
13,QVQLVESGGGLVQAGGSLRLSCAASGSIFTSYAMGWYRQAPGTERELVAVITSSGSSTYYADSVKGRFTISRDNAKNTVYLQMNSMKPEDTAVYYCYGYYDAYGYWGQGTQVTVSS,low polyreactivity
14,QVQLVESGGGLVQAGGSLRLSCAASGIIFVYYVMGWYRQAPGKERELVASIDGSGGSTNYADSVKGRFTISRDNAKNTVYLQMNSLKPEDTAVYYCNADNILYWSTLDYLGQGTQVTVSS,low polyreactivity
15,QVQLHESGCGLVQAGGSLRLSCAASGTISYAGPMGWYRPAPGNEREFVAGIGVGSNTNYADSVKGRYTIIRDNATNTVYLQMNSLKPEDTAVYYCAVGGYAPLGRPYWGQGTQVTVSS,low polyreactivity
16,QVQLVESGGGLVQAGGSLRLSCAASGRTFYRNAMGWYRQAPGKERELVATLNSGGSTHYADSVKGRFTISRDNAKNTVYLQMNSLKPEDTAVYYCAARSPSYRGSLSYYWGQGTQVTVSS,high polyreactivity
17,QVHLVESGGGLVQAGGSLRLSCADSGRIFYQYAMGWYRQQPGKESELVARITSGGGTNYADSVKGRFSISRDNAKYTVYLQMNSLKPEDTAVYYCAAGPWYYSYPDYYWGQGTQVTVSS,high polyreactivity
18,QVQLVESGGGLVQAGGSLRLSCAATGSIFLYYAMGWYRQAPGKERELVAGINRVGSTNYADSVKGRFTISRDNAKNTVYLELNSLKPEDTAVYYCAAKYRNRYDYWGQGTQATVSS,low polyreactivity
19,QVQLVESGGGLVQAGGSLRLSCAASGSTFGDNAMVWYRQAPGKERELVAAITFRDGITYYADSVKGRITISRDNAKNSVYLQMNSLKPEDTAFYYCAKGVHRRWYYGYGYWGQGTQVTVSS,high polyreactivity
20,QVQLQESAGGLEQAGGSLRRICSARCNINSDASMGSYRQAPGKQREHAASTTKGSRTHDAESVKGRLTIRDNAKNTVYLQMNSLKPDDTAVCYSAVTYPYWGDYTYWGQGTQVTVSS,low polyreactivity

row,Sequence,polyreactivity (PSR sort gate)
1,QVQLVESGGGLVQAGGSLRLSCAASGITFYGNAMGWYRQAPGKERELVAAISSSGGTTYYADSVKGRFTISRDNAKNTVYLQMNSLKPEDTAVYYCNALHPVVYYGTYFNLRRYDYWGQGTQVTVSS,low polyreactivity
2,QDQLVESGGGLVQPGGSLRLSCAASGTIIPRSAMGWYRQATGKERELVAAISQRGGSTFYADSVKWRFTISRDNAKNTVYLQMNRLKPEVTAVYYCAADPGVQRGHIDRMYYWGQGTQVTVSS,high polyreactivity
3,QVQLVESGGGLVQAGGSLRLICAASGFIFAWYAMGWYRQAPGKERELVAAITSGGRTYYADSVKGRFTISRDNAKNTVYLQMNSMKPEDTAVYYCATDAVDSHRPYKYGPQSGSWGQGTQVTVSS,high polyreactivity
4,QVQLVESGGGLVQAGGSLRLSCAASGSNIYTYAMGWYRHAPGKERELVAAISSGGSTTYADSVKGRFTISRDNAKNTVYLEMISLKPEDTAVYYCAADGASRALYDYWGQGTQVTVSS,high polyreactivity
5,QVQLVESGGGLVQAGGSLRLSCAASGSIFWWYAMGWYRQAPGKERELVAAIRWSGTTTFYADSLKGRFTISRDNAKNNVFLQMKSLKPEDTAVYYCNAEGGIWGVTSGYDYWGQGTQVTVSS,low polyreactivity
6,QVQLVESGGGVVQAGGSLRLSCAASGFIFYYNTMGWYRQAPGKERELVASMTWSGDTTYYADSVKGRFTISRDNAKNTVYLQMNSLTPEDTAVYYCAAVHYDPYRRYDYWGQGTQVTVSS,low polyreactivity
7,QVQLVESGGGLVQAGGRLRLTCAASGRIFFWYVMGWYRQATGKERELVAAISSGGRTYYADAVKGRFTISRDNAKNTVYLQMNSLKPEDTAVYYCNVEEYHVRADIGYSNYGYWGQGTQVTVSS,low polyreactivity
8,QVQLVESGGGLVQAGGSLRLSCAASGSIFYPYAMGWYRQAPGKERELVAGISRSGASTYYADSVKGRFTISRDNAKNTVYLQMNSLKPEDTAVYYCAADDWTRNYWGQGTEVTVSS,low polyreactivity
9,QVQLVESVGGLVQAGGSLRLSCAASGRTFRTYTMGWYRQAPGKERELVAAIRSSGGRTYYADSVKGRFTISRDNAKNTVYLQMNSLKPEDTAVYYCAREYRGALHYYYCGQGTQVTVSS,high polyreactivity
10,QVQLVESGGGLVQAGGRLRLSCAASGGWYRQAPGKERELVAAISWRDSSTYYADSVKGRFTISRDNAKNTVYLQMNSLKPEDTAVYYCAVRAYPWPEYYYWGQGTQVTVSS,low polyreactivity
11,QVHLVESGGGLVQAGGSLRLSCAASGFIFIRYAMGWYRQAPGKERELVAAINGGGSSTYYADSVKGRFTISRDNAKYTVYLQMNSLKPEDTAVDYCDADTDSWWYYLYYGDGFDYWGQGTQVTVSS,high polyreactivity
12,QVQLVESRGGFVQARCSLRLSCDASGRIFYYYGMGWYRQAPGKERELVAAITRNTGRTYYADSVKGRFTISRDNAKNTVYLQMNSLKPEDSSVYYFARDRRTWSPYTRAYRRNDYWVQGTQVTVSS,high polyreactivity
13,QVQLVESGGGLVQAGGSLRLSCAASGFICYFYAMGWYRQAPGKERELVAVITQSGGSTYYADSVKGRFTISRDNAKNTVYLQMNSLKPEDTAVYYCNADTVRYYPFFSVRYYYWGQGTQVTVSS,low polyreactivity
14,QVQLVESGGGLVQAGGSLRLSCAASGYIFDFYDMGWYRQAPGKERELVAAITSGGSTNYADSVKGRFTISRDNAKNTVYLQMNSLKPEDTAVYYCAASFVGHIYWGARVPYYYNHDYWGQGTQVTVSS,high polyreactivity
15,QVQLVESGGGLVQAGGSLRLSCAASGRTFLGYAMGWSRQAPGKERELVAAISTGGGRTYYADSVKGRFTISRDNAKNTVYLQMNSLKPEDTAVYYCATVPRHGAPTTFNYWGQGTQVTVSS,high polyreactivity
16,QVQHVESGGGLVQAGGSLRLSCAASGNTFLRYAMGWYIKAPGKERELVAAISRSGGSTYYADSVKGRFTISRDTAKNTVYLQMNSLKPEDTAVYYCAARRSSQPDKGYYYWGQGTQVTVSS,high polyreactivity
17,QVQLVESGGGLVQAGGSLRLSCAASGRTFRRNAMAWYRKAPGKERELVAAISGGGSTNYADSVKGRFTISRDNAKNTVYLQMNSLKPEDTAVYYCNKRGTIWSGFWGQGTQVTVSS,high polyreactivity
18,QVQLVESGGGLVQAGGSLRLSCAASGSTFYSYAMGWSRQAPGKERELVARISGSGGSTYYADSVKGRFTISRDTAKNTVYLQMNSLKPEDPAVYYCAADDIYKYYQYYAFPYYRYDYWGQGTQVTVSS,low polyreactivity
19,QVQLVESGGGLVQAGGSLRLSCSASGRTFSKYAMAWYRQAPGKERELVAAISKRGGSTSYADSVKGRFTISRDNAKNTVYLQMNSLKREDTAVYYCAATYTYVVPEYDYWGHGTQVTVSS,high polyreactivity
20,QVQLEESGGGLVQAGGSLRLSCAASGSTLNYYAMGWYRQAPGKERELVAAITWSGGSTSYADSVKGRFTISRDKAKNTVYLQMNSLKQEDTAVYYCATDFPTVQLYDTDWLSSDMGYWGQGTQVTVSS,low polyreactivity
